In paper PMC3931302:

Assays:
[1] = biological target: GST-HTTex1p 51QP (expanded HTT exon 1 with the proline-rich region); experiment: pull-down
[2] = biological target: GST-HTTex1p 20QP (unexpanded HTT exon 1 with the proline-rich region); experiment: pull-down

**Q.** What does the source list for “radiolabeled human PIAS1 (from UniProt O75925-1 1-651) (natural protein)”?
**A.** percent of 35S-labeled PIAS1 bound [1]: 7%; percent of 35S-labeled PIAS1 bound [2]: 7.75%
